{"source": "paper PMC10192129", "about": "“The thioesterase APT1 is a bidirectional-adjustment redox sensor” (Nature Communications, 2023)", "proteins": {"B1": {"name": "6 × His-APT1 fusion protein (acyl-protein thioesterase 1, Medicago truncatula) (enzyme)", "chain": "not shown", "notes": "acyl-protein thioesterase 1 (APT1, MtAPT1) of Medicago truncatula; cDNA amplified from ecotype A17; cysteines at C20, C22 and C37; The vector pET-30a(+) may add further vector-encoded residues (surmised); also called MtAPT1; pET-30a(+)-His-APT1"}, "B2": {"name": "APT1-GFP fusion protein (p35S:APT1-GFP) in M. truncatula apt1 roots (enzyme)", "chain": "not shown", "notes": "acyl-protein thioesterase 1 (APT1) of Medicago truncatula, cDNA from ecotype A17; Detected with anti-GFP; source: transgenic M. truncatula apt1 mutant roots (p35S:APT1-GFP), in lysate"}, "B3": {"name": "APT1 in M. truncatula under drought stress (enzyme)", "chain": "not shown", "notes": "acyl-protein thioesterase 1 (APT1) of Medicago truncatula; May be the same APT1-GFP as m9 (surmised); source: in vivo in M. truncatula"}}, "key": {"[1]": {"target": "the molecule itself", "test": "nonreducing SDS-PAGE with immunoblot; 6 × His-APT1 proteins after Ni purification from E. coli, no reducing agent; Tris-Tricine SDS-PAGE system"}, "[2]": {"target": "the molecule itself", "test": "nonreducing capillary electrophoresis immunoassay (Simple Jess) + other: nonreducing SDS-PAGE with immunoblot; root lysates of p35S:APT1-GFP/apt1 plants after 4 mM H2O2 for 15 min to 6 h (also 1 dpi with F. oxysporum); DTT-free buffers, samples not heated, anti-GFP"}, "[3]": {"target": "the molecule itself", "test": "not stated; in vivo in M. truncatula under drought stress (Supplementary Fig. 2a)"}}, "note": "Several values for one entry are separate records, joined by “and”; a condition that tells them apart may be missing. Equal values may be shown once.", "data": [{"protein": "B1", "values": [{"measurement": "stoichiometry N", "setting": "[1]", "value": "2 and 4"}]}, {"protein": "B2", "values": [{"measurement": "stoichiometry N", "setting": "[2]", "value": 4}]}, {"protein": "B3", "values": [{"measurement": "stoichiometry N", "setting": "[3]", "value": 4}]}]}
